± gives the standard error. For part of these data: This sample holds only a part of the variants without activity. Where only a bound is given, the exact number is not on record here.

Usually kcat stands for the number of substrate molecules converted per active site and unit of time at saturation. As usually defined, the KM is the substrate concentration at which the rate is half of its maximum.

B1: glmS ribozyme (parent)
chain: AUAAAAGCGCCAGAACUACAGAAAUGUAGUUGACGAGGAGGAGGUUUAUCGAAUUUUCGGCGGAUGCCUCCAAA

Common to all, as to conditions: with glucosamine-6-phosphate
Data set [1] covers variants of B1. Nature of the data set: kcat; higher = faster cleavage; RNA array. In a few lines:
(§1)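 Glucosamine-6-phosphate (40 μM to 10 mM) in HEPES/KCl/Mg(OAc)2 buffer was flowed over sequenced MiSeq chips, and tiles were imaged over ~14 h. Barcoded ribozyme variants there had been transcribed in situ by E. coli RNA polymerase and were tracked through a hybridised Cy3 probe at 37 °C. One- or two-exponential decay fits to per-tile medians, normalised to baseline and to non-cleaving reference variants, gave kobs. kcat and KM came from weighted Michaelis–Menten fits across concentrations.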

Data set [2] covers variants of B1. Nature of the data set: KM; higher = weaker cofactor use; RNA array. In a few lines:
as §1

The variants in data set [3] derive from B1. Nature of the data set: self-cleavage kobs at 40 uM GlcN6P; higher = faster cleavage; RNA array. In a few lines:
as §1

Data set [4] covers variants of B1. Nature of the data set: self-cleavage kobs at 640 uM GlcN6P; higher = faster cleavage; RNA array. In a few lines:
as §1

The variants in data set [5] derive from B1. Nature of the data set: self-cleavage kobs at 160 uM GlcN6P; higher = faster cleavage; RNA array. In a few lines:
as §1

In data set [6] the parent is B1. Put plainly: self-cleavage kobs at 2500 uM GlcN6P; higher = faster cleavage; RNA array. A digest of the protocol: as §1
The variants in data set [7] derive from B1. Nature of the data set: self-cleavage kobs at 10000 uM GlcN6P; higher = faster cleavage; RNA array. A digest of the protocol: as §1

For the variant G41A A48C, the kcat in the data set with glucosamine-6-phosphate [1] was 1.6e-05 ± 1.9e-06 s⁻¹. Also, the KM in the data set with glucosamine-6-phosphate [2] was determined as 2350 ± 1000 µM. The “self-cleavage kobs at 40 uM GlcN6P” value with glucosamine-6-phosphate [3] is under 1e-05 s⁻¹. The “self-cleavage kobs at 640 uM GlcN6P” value in the data set with glucosamine-6-phosphate [4] is under 1e-05 s⁻¹.
In the case of C58G C70G, the kcat with glucosamine-6-phosphate [1] turned out to be 5.46e-05 ± 1.6e-05 s⁻¹. Further, the “self-cleavage kobs at 160 uM GlcN6P” value with glucosamine-6-phosphate [5] came to 4.69e-05 ± 1.8e-05 s⁻¹. The “self-cleavage kobs at 640 uM GlcN6P” value with glucosamine-6-phosphate [4] came out at 7.73e-05 ± 2e-05 s⁻¹. In the data set with glucosamine-6-phosphate [6], the “self-cleavage kobs at 2500 uM GlcN6P” value worked out at 5.92e-05 ± 1.4e-05 s⁻¹.
For the variant G29U G40A, the kcat with glucosamine-6-phosphate [1] was determined as 0.000509 ± 4.9e-05 s⁻¹. Besides, the KM with glucosamine-6-phosphate [2] was 859 ± 180 µM. In the data set with glucosamine-6-phosphate [3], the “self-cleavage kobs at 40 uM GlcN6P” value worked out at 2.61e-05 ± 7.8e-06 s⁻¹. Moreover, the “self-cleavage kobs at 160 uM GlcN6P” value in the data set with glucosamine-6-phosphate [5] was determined as 7.2e-05 ± 1.3e-05 s⁻¹. Also, in the data set with glucosamine-6-phosphate [4], the “self-cleavage kobs at 640 uM GlcN6P” value came to 0.000221 ± 3.7e-05 s⁻¹. In addition, the “self-cleavage kobs at 2500 uM GlcN6P” value with glucosamine-6-phosphate [6] is 0.000464 ± 6.4e-05 s⁻¹. Further, the “self-cleavage kobs at 10000 uM GlcN6P” value in the data set with glucosamine-6-phosphate [7] was 0.000441 ± 4.7e-05 s⁻¹.
Turning to A52U U56A, the kcat with glucosamine-6-phosphate [1] is 7.93e-05 ± 2e-05 s⁻¹. Besides, the “self-cleavage kobs at 40 uM GlcN6P” value with glucosamine-6-phosphate [3] is under 1e-05 s⁻¹. In the data set with glucosamine-6-phosphate [6], the “self-cleavage kobs at 2500 uM GlcN6P” value amounted to 7.17e-05 ± 1.7e-05 s⁻¹. Further, the “self-cleavage kobs at 10000 uM GlcN6P” value in the data set with glucosamine-6-phosphate [7] was found to be 6.73e-05 ± 9.7e-06 s⁻¹.
Turning to U47C, the kcat with glucosamine-6-phosphate [1] was 0.00454 ± 0.0006 s⁻¹. In addition, the KM with glucosamine-6-phosphate [2] turned out to be 1380 ± 250 µM. Besides, the “self-cleavage kobs at 40 uM GlcN6P” value with glucosamine-6-phosphate [3] was found to be 0.000129 ± 2.6e-06 s⁻¹. Besides, in the data set with glucosamine-6-phosphate [5], the “self-cleavage kobs at 160 uM GlcN6P” value worked out at 0.000428 ± 1.8e-05 s⁻¹. Besides, the “self-cleavage kobs at 640 uM GlcN6P” value with glucosamine-6-phosphate [4] turned out to be 0.00142 ± 4.2e-05 s⁻¹. In addition, the “self-cleavage kobs at 2500 uM GlcN6P” value in the data set with glucosamine-6-phosphate [6] came to 0.00412 ± 0.00014 s⁻¹. Further, the “self-cleavage kobs at 10000 uM GlcN6P” value with glucosamine-6-phosphate [7] was 0.00375 ± 9.2e-05 s⁻¹.
On to G13A U57A, for which the kcat with glucosamine-6-phosphate [1] was 5.51e-05 ± 4.2e-06 s⁻¹. The KM in the data set with glucosamine-6-phosphate [2] was 370 ± 130 µM. The “self-cleavage kobs at 2500 uM GlcN6P” value in the data set with glucosamine-6-phosphate [6] was determined as 4.76e-05 ± 1.5e-05 s⁻¹.
As to G51A U54A G59A C68G, the kcat with glucosamine-6-phosphate [1] was 2.9e-05 ± 7.6e-06 s⁻¹.
C16U C68U: the kcat in the data set with glucosamine-6-phosphate [1] was 0.0026 ± 0.0006 s⁻¹. In addition, the KM with glucosamine-6-phosphate [2] was 1440 ± 460 µM. Further, the “self-cleavage kobs at 40 uM GlcN6P” value with glucosamine-6-phosphate [3] turned out to be 8.07e-05 ± 5.9e-06 s⁻¹. The “self-cleavage kobs at 160 uM GlcN6P” value in the data set with glucosamine-6-phosphate [5] turned out to be 0.000263 ± 2.9e-05 s⁻¹. Further, the “self-cleavage kobs at 640 uM GlcN6P” value with glucosamine-6-phosphate [4] stood at 0.000649 ± 5.6e-05 s⁻¹. Besides, in the data set with glucosamine-6-phosphate [6], the “self-cleavage kobs at 2500 uM GlcN6P” value stood at 0.00247 ± 0.00034 s⁻¹. The “self-cleavage kobs at 10000 uM GlcN6P” value with glucosamine-6-phosphate [7] turned out to be 0.00235 ± 0.00021 s⁻¹.
Turning to A42G U65G, in the data set with glucosamine-6-phosphate [1], the kcat was found to be 0.00591 ± 0.00097 s⁻¹. In the data set with glucosamine-6-phosphate [2], the KM is 4220 ± 930 µM. Moreover, in the data set with glucosamine-6-phosphate [3], the “self-cleavage kobs at 40 uM GlcN6P” value worked out at 5.66e-05 ± 1.2e-05 s⁻¹. Also, in the data set with glucosamine-6-phosphate [5], the “self-cleavage kobs at 160 uM GlcN6P” value is 0.000279 ± 7.4e-05 s⁻¹. In addition, in the data set with glucosamine-6-phosphate [4], the “self-cleavage kobs at 640 uM GlcN6P” value amounted to 0.000708 ± 0.00015 s⁻¹. In the data set with glucosamine-6-phosphate [6], the “self-cleavage kobs at 2500 uM GlcN6P” value was 0.00211 ± 0.00033 s⁻¹. Besides, in the data set with glucosamine-6-phosphate [7], the “self-cleavage kobs at 10000 uM GlcN6P” value was determined as 0.00436 ± 0.00084 s⁻¹.
Consider G13A U45A, for which the kcat in the data set with glucosamine-6-phosphate [1] was determined as 0.00257 ± 0.00041 s⁻¹. Also, in the data set with glucosamine-6-phosphate [2], the KM worked out at 6910 ± 1400 µM. Moreover, the “self-cleavage kobs at 160 uM GlcN6P” value with glucosamine-6-phosphate [5] is 5.26e-05 ± 9.7e-06 s⁻¹. The “self-cleavage kobs at 640 uM GlcN6P” value with glucosamine-6-phosphate [4] was found to be 0.000237 ± 3.3e-05 s⁻¹. In addition, the “self-cleavage kobs at 2500 uM GlcN6P” value with glucosamine-6-phosphate [6] is 0.000649 ± 0.00012 s⁻¹. Besides, the “self-cleavage kobs at 10000 uM GlcN6P” value with glucosamine-6-phosphate [7] is 0.00152 ± 0.00022 s⁻¹.
Consider U49G C67G, for which the kcat with glucosamine-6-phosphate [1] came out at 8.59e-05 ± 1e-05 s⁻¹. Further, the “self-cleavage kobs at 640 uM GlcN6P” value with glucosamine-6-phosphate [4] was 3.79e-05 ± 1e-05 s⁻¹. In the data set with glucosamine-6-phosphate [6], the “self-cleavage kobs at 2500 uM GlcN6P” value was 4.61e-05 ± 8.8e-06 s⁻¹. Moreover, in the data set with glucosamine-6-phosphate [7], the “self-cleavage kobs at 10000 uM GlcN6P” value amounted to 7.87e-05 ± 6.7e-06 s⁻¹.
Regarding G13C G43U C67A, the kcat in the data set with glucosamine-6-phosphate [1] turned out to be 6.76e-05 ± 3.4e-05 s⁻¹.
Turning to A14G G44U, the kcat in the data set with glucosamine-6-phosphate [1] came to 0.00141 ± 0.00018 s⁻¹. The KM with glucosamine-6-phosphate [2] turned out to be 4650 ± 840 µM. Besides, the “self-cleavage kobs at 160 uM GlcN6P” value with glucosamine-6-phosphate [5] turned out to be 4.99e-05 ± 2e-05 s⁻¹. In the data set with glucosamine-6-phosphate [4], the “self-cleavage kobs at 640 uM GlcN6P” value came out at 0.000163 ± 2.5e-05 s⁻¹. For the same variant, in the data set with glucosamine-6-phosphate [6], the “self-cleavage kobs at 2500 uM GlcN6P” value is 0.000558 ± 0.0001 s⁻¹. For the same variant, the “self-cleavage kobs at 10000 uM GlcN6P” value with glucosamine-6-phosphate [7] amounted to 0.000923 ± 0.00019 s⁻¹.
As to U30C U46A, in the data set with glucosamine-6-phosphate [1], the kcat worked out at 1.46e-05 ± 6.8e-06 s⁻¹. Also, the “self-cleavage kobs at 40 uM GlcN6P” value with glucosamine-6-phosphate [3] was under 1e-05 s⁻¹.
Consider A15G A42G, for which the kcat in the data set with glucosamine-6-phosphate [1] was 0.132 ± 0.031 s⁻¹. For the same variant, the KM with glucosamine-6-phosphate [2] came to 3780 ± 970 µM. Further, the “self-cleavage kobs at 40 uM GlcN6P” value in the data set with glucosamine-6-phosphate [3] was determined as 0.00132 ± 0.00047 s⁻¹. Besides, the “self-cleavage kobs at 160 uM GlcN6P” value in the data set with glucosamine-6-phosphate [5] came to 0.00525 ± 0.0011 s⁻¹. Moreover, the “self-cleavage kobs at 640 uM GlcN6P” value in the data set with glucosamine-6-phosphate [4] was 0.024 ± 0.0099 s⁻¹.
Turning to G40C U56G, the kcat in the data set with glucosamine-6-phosphate [1] amounted to 0.00124 ± 0.00014 s⁻¹. For the same variant, the KM with glucosamine-6-phosphate [2] was 1460 ± 280 µM. In addition, the “self-cleavage kobs at 40 uM GlcN6P” value with glucosamine-6-phosphate [3] was 3.52e-05 ± 6.5e-06 s⁻¹. Also, the “self-cleavage kobs at 160 uM GlcN6P” value in the data set with glucosamine-6-phosphate [5] was found to be 0.000146 ± 2.1e-05 s⁻¹. Further, the “self-cleavage kobs at 640 uM GlcN6P” value with glucosamine-6-phosphate [4] was 0.000333 ± 3.5e-05 s⁻¹. For the same variant, in the data set with glucosamine-6-phosphate [6], the “self-cleavage kobs at 2500 uM GlcN6P” value came to 0.000869 ± 0.00011 s⁻¹. Also, the “self-cleavage kobs at 10000 uM GlcN6P” value with glucosamine-6-phosphate [7] came to 0.00108 ± 9.7e-05 s⁻¹.

(Values after the supplement of paper PMC7125110.)
